Reference: patent US20230203463, “RNA-GUIDED NUCLEASES AND ACTIVE FRAGMENTS AND VARIANTS THEREOF AND METHODS OF USE” (LifeEDIT Therapeutics, Inc., published 2023)
Substitutions are numbered along the chain they refer to.

Experiments:
APG05405 (Bacillus sp.) = tested on: T1, APG05405 (Bacillus sp.); assay: cleavage_in_vitro; settings: trans cleavage
T1 sequence: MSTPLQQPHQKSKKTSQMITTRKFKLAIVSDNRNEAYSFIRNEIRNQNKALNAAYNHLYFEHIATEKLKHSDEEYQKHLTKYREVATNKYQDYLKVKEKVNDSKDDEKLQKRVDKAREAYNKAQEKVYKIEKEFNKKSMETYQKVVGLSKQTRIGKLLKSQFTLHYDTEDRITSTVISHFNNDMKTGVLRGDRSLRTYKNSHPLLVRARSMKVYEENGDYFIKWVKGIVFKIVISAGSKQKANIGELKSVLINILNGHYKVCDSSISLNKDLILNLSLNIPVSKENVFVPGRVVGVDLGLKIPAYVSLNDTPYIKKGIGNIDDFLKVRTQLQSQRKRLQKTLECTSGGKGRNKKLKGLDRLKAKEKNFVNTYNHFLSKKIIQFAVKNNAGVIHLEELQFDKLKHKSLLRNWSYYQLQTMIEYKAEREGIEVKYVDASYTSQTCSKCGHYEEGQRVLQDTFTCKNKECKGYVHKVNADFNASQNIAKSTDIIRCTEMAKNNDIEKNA

APG09624 = target: T2, APG09624 (Bacillus sp.); assay: thermal shift; peaks 39 and 44 C vs 38 C without RNA; settings: tags: C-terminal His10
T2 chain: T1 sequence with D102A, I177L, T311N, K326N, S333N, N352S
Method: (§1) RNA binding was confirmed by differential scanning fluorimetry (Niesen, F.H., H. Berglund, and M. Vedadi. 2007. Nat. Protoc. 2: 2212-2221). Dual RNA complexes were produced by mixing an excess of crRNA with tracrRNA in Annealing Buffer (Synthego, 60 mM KCl 6 mM HEPES pH 7). The candidate effector protein and guide RNA (either dual RNA complex or sgRNA) were incubated at final concentrations of 0.5 µM effector protein and 1 µM guide RNA in phosphate buffered saline (PBS, Thermo Fisher). These were incubated for 20 minutes at room temperature and then mixed 1:1 with Sypro Orange dye solution that had been diluted in PBS. A melt curve was obtained measuring fluorescence intensity (FI) as a function of temperature and the first derivative of the melt curve (dFI/dT) was calculated. A shift in the plot of dFI/dT as a function of temperature of the putative RNP relative to the original nuclease indicates RNA binding and was used to evaluate putative guide RNA combinations. […] Peak 1 refers to the temperature associated with the largest observed peak for the given sample. If a second peak is observed, it is indicated in the Peak 2 column. Interpretation of the data regarding the formation of a complex is indicated in the “Binding?” column Table 3. “Yes” indicates binding was observed. “N/A” indicates sufficient data was not available to determine if binding could occur.

APG05405 = target: T3, APG05405 (Bacillus sp.); assay: thermal shift; peak 43 C vs 36 C without RNA; settings: tags: C-terminal His10
T3 chain: T1 sequence
Method: as §1

GGGAAACAGCUAGAAUGUAACUUAAAGUAGGUCAAUGUUUAAAUUCGAUGUUGCAAUUUGUUUGGACAAGUGGAUUAAAACGUUCCUUGAAAAUCAUAUAAAGCAGCCAGUUUACGGGCUUGGGCGAAUUUGCGUCCAAAGGGUGAGGCCAGGUGUAAGUAAGAACCUACAAAAGCACUCACCAAAGGGUCAAAAAGAUCCUACAUGGAUGUGAGGAUUGAAAUACUACAACAGCCACAACG / TCGTCGGCAGCGTCAGATGTGTATAAGAGACAGAACGACGGCCAGTGAATTNNNNNNNNACTACAACAGCCACAACGTCTATATCATGGGATCCTCTAGAGTCGACCTGCTGTCTCTTATACACATCTCCGAGCCCACGAGAC / GTCTCGTGGGCTCGGAGATGTGTATAAGAGACAGCAGGTCGACTCTAGAGGATCCCATGATATAGACGTTGTGGCTGTTGTAGTNNNNNNNNAATTCACTGGCCGTCGTTCTGTCTCTTATACACATCTGACGCTGCCGACGA [sgRNA Gsg.2 ; dsPCR2]
activity (APG05405 (Bacillus sp.); NEBuffer 2, 37 C, degenerate 8 bp 5' of target, PAM not determined): 768 AU/min

GGGAAACAGCUAGAAUGUAACUUAAAGUAGGUCAAUGUUUAAAUUCGAUGUUGCAAUUUGUUUGGACAAGUGGAUUAAAACGUUCCUUGAAAAUCAUAUAAAGCAGCCAGUUUACGGGCUUGGGCGAAUUUGCGUCCAAAGGGUGAGGCCAGGUGUAAGUAAGAACCUACAAAAGCACUCACCAAAGGGUCAAAAAGAUCCUACAUGGAUGUGAGGAUUGAAAUACUACAACAGCCACAACG / TCGTCGGCAGCGTCAGATGTGTATAAGAGACAGAACGACGGCCAGTGAATTNNNNNTGGAATGGGAACTAAAGTAATGGCAAACGAATTCGTAGGATCCTCTAGAGTCGACCTGCTGTCTCTTATACACATCTCCGAGCCCACGAGAC / GTCTCGTGGGCTCGGAGATGTGTATAAGAGACAGCAGGTCGACTCTAGAGGATCCTACGAATTCGTTTGCCATTACTTTAGTTCCCATTCCANNNNNAATTCACTGGCCGTCGTTCTGTCTCTTATACACATCTGACGCTGCCGACGA [sgRNA Gsg.2 ; dsPCR3]
activity (APG05405 (Bacillus sp.); non-matching guide): 102 AU/min

GGGAAACAGCUAGAAUGUAACUUAAAGUAGGUCAAUGUUUAAAUUCGAUGUUGCAAUUUGUUUGGACAAGUGGAUUAAAACGUUCCUUGAAAAUCAUAUAAAGCAGCCAGUUUACGGGCUUGGGCGAAUUUGCGUCCAAAGGGUGAGGCCAGGUGUAAGUAAGAACCUACAAAAGCACUCACCAAAGGGUCAAAAAGAUCCUACAUGGAUGUGAGGAUUGAAAUUGGAAUGGGAACUAAAGU / TCGTCGGCAGCGTCAGATGTGTATAAGAGACAGAACGACGGCCAGTGAATTNNNNNTGGAATGGGAACTAAAGTAATGGCAAACGAATTCGTAGGATCCTCTAGAGTCGACCTGCTGTCTCTTATACACATCTCCGAGCCCACGAGAC / GTCTCGTGGGCTCGGAGATGTGTATAAGAGACAGCAGGTCGACTCTAGAGGATCCTACGAATTCGTTTGCCATTACTTTAGTTCCCATTCCANNNNNAATTCACTGGCCGTCGTTCTGTCTCTTATACACATCTGACGCTGCCGACGA [sgRNA Gsg.3 ; dsPCR3]
activity (APG05405 (Bacillus sp.); NEBuffer 2, 37 C, degenerate 5 bp 5' of target, PAM not determined): 780 AU/min

GGGAAACAGCUAGAAUGUAACUUAAAGUAGGUCAAUGUUUAAAUUCGAUGUUGCAAUUUGUUUGGACAAGUGGAUUAAAACGUUCCUUGAAAAUCAUAUAAAGCAGCCAGUUUACGGGCUUGGGCGAAUUUGCGUCCAAAGGGUGAGGCCAGGUGUAAGUAAGAACCUACAAAAGCACUCACCAAAGGGUCAAAAAGAUCCUACAUGGAUGUGAGGAUUGAAAUUGGAAUGGGAACUAAAGU / TCGTCGGCAGCGTCAGATGTGTATAAGAGACAGAACGACGGCCAGTGAATTNNNNNNNNACTACAACAGCCACAACGTCTATATCATGGGATCCTCTAGAGTCGACCTGCTGTCTCTTATACACATCTCCGAGCCCACGAGAC / GTCTCGTGGGCTCGGAGATGTGTATAAGAGACAGCAGGTCGACTCTAGAGGATCCCATGATATAGACGTTGTGGCTGTTGTAGTNNNNNNNNAATTCACTGGCCGTCGTTCTGTCTCTTATACACATCTGACGCTGCCGACGA [sgRNA Gsg.3 ; dsPCR2]
activity (APG05405 (Bacillus sp.); non-matching guide): 78 AU/min

B1: crRNA 143 + tracrRNA 145 (ssRNA)
RNA 1: GUCACAUCCUACAUGGAUGUGAGGAUUGAAAUUGGAAUGGGAACUAAAGUAAUGG
RNA 2: AAACAGCUAGAAUGUAACUUAAAGUAGGUCAAUGUUUAAAUUCGAUGUUGCAAUUUGUUUGGACAAGUGGAUUAAAACGUUCCUUGAAAAUCAUAUAAAGCAGCCAGUUUACGGGCUUGGGCGAAUUUGCGUCCAAAGGGUGAGGCCAGGUGUAAGUAAGAACCUACAAAAGCACUCACCAAAGGGUCAACUCGAUACAUU
binding result (APG09624): binds
binding result (APG05405): binds
